Molecular target: the molecule itself
Test: SEC; analytical SEC on Superdex 200 10/300 GL; samples ~21 µM in 100 µl; 25 mM HEPES pH 7.5, 100 mM KCl, 50 mM NaCl, 1 mM TCEP, 1 mM MgCl2; molecular weights from a standard curve

B1: human methyltransferase-like protein 16 (METTL16), residues 1-562 (enzyme)
chain: SNAMALSKSMHARNRYKDKPPDFAYLASKYPDFKQHVQINLNGRVSLNFKDPEAVRALTCTLLREDFGLSIDIPLERLIPTVPLRLNYIHWVEDLIGHQDSDKSTLRRGIDIGTGASCIYPLLGATLNGWYFLATEVDDMCFNYAKKNVEQNNLSDLIKVVKVPQKTLLMDALKEESEIIYDFCMCNPPFFANQLEAKGVNSRNPRRPPPSSVNTGGITEIMAEGGELEFVKRIIHDSLQLKKRLRWYSCMLGKKCSLAPLKEELRIQGVPKVTYTEFCQGRTMRWALAWSFYDDVTVPSPPSKRRKLEKPRKPITFVVLASVMKELSLKASPLRSETAEGIVVVTTWIEKILTDLKVQHKRVPCGKEEVSLFLTAIENSWIHLRRKKRERVRQLREVPRAPEDVIQALEEKKPTPKESGNSQELARGPQERTPCGPALREGEAAAVEGPCPSQESLSQEENPEPTEDERSEEKGGVEVLESCQGSSNGAQDQEASEQFGSPVAERGKRLPGVAGQYLFKCLINVKKEVDDALVEMHWVEGQNRDLMNQLCTYIRNQIFRLVAVN
notes: Ser-Asn-Ala linker encoded in the pMCSG68 vector, between the TEV protease cleavage site and residue 1; METTL16, human, UniProt Q86W50, residues 1-562; also called full-length METTL16; source: E. coli BL21 Gold, purified (HisTrap HP, TEV cleavage, SEC); not shown: His6, N-terminal, cleaved
- stoichiometry N: 2

From paper PMC5871880, “Structural insights into the RNA methyltransferase domain of METTL16” (Scientific Reports, 2018)
